This note sets out measurements from publication PMC3469519 (Molecular Biology of the Cell, 2012).

Read-outs that look alike come from different tables or passages of the source.

What all share (assay): pull-down
One assay has as its target T1, 6His-Bnr1-758 (Bnr1-N) (S. cerevisiae, UniProt P40450 1-758).
T1 sequence (looked up): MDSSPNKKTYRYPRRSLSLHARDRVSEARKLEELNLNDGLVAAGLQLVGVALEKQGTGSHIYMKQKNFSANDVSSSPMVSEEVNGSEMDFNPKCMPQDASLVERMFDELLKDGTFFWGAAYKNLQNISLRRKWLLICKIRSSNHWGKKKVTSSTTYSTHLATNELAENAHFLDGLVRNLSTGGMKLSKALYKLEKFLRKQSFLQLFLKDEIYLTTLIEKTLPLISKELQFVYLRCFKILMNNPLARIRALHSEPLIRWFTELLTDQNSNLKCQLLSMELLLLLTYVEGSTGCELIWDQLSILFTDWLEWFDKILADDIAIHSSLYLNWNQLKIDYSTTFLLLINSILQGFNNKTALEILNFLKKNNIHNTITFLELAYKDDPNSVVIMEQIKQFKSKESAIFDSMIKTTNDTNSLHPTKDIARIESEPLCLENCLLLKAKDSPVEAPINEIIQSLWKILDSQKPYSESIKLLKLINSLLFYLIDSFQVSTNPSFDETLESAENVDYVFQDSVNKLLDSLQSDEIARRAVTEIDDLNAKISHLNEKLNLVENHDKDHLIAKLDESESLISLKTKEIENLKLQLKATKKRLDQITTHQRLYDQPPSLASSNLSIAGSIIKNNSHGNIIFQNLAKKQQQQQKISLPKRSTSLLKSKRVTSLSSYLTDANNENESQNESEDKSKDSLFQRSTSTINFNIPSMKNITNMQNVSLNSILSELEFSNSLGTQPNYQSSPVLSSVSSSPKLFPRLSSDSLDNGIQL

The target in assay [1] is T2, full-length 6His-Bnr1 (S. cerevisiae, UniProt P40450 1-1375).
The target of assay [2] is T2, full-length 6His-Bnr1. This is another data set of the same source.

B1: pCAL-n-FLAG-Gin4-C (amino acids 540–1142) (domain or fragment, S. cerevisiae, UniProt Q12263 540-1142, looked up)
chain: SSNFATLIDEIFEYEKYEQIRKEKEELERKVREAKAREELERRRRKQEEKERARKLLEKEDLKRKQEELKKQIEIDISDLEQELSKHKEEKLDGNIRSISAPMENEEKNINHLEVDIDNILRRRNFSLQTRPVSRLDPGIMFSSPTEEVSPVEPKRTENERLTTEKKILETIRRSKFLGSSFNIDKELKLSKMEYPSIIAPQRLSEERVVSDSNDGYESLILPKDGNGVSQLKDSTATTAPVSDGRLRKISEIRVPQFTRKSRHFSESNKRLSVLSMYSTKESFTNLVDILKNGNLDVNNQQSQRIPTPRSADDSEFLFETVNEEAEYTGNSSNDERLYDVGDSTIKDKSALKLNFADRFNGSNEAKQTDNLHLPILPPLNGDNELRKQNSQEGDQAHPKIKSMIPESGSSSHTEKEEENEEKEEKKPEQHKQEEDQEKREKVVDDMEPPLNKSVQKIREKNAGSQAKDHSKDHLKEHKQDKNTAIGNGSFFRKFSKSSDKTMELYAKISAKQLFNGLEKLLRGWTQYGLKNIKSHPNNLTLTGKLSSDNIFSLRSTLFEVNIYPRGKMSVVQFKKVSGSFKAVKKLVNEVENVLNKEGVLQK
Regarding B1, the binding result in the assay with 6His-Bnr1-758 (Bnr1-N) and with full-length 6His-Bnr1 [1] was “binds” each time.

B2: full-length GST-Gin4 (enzyme, S. cerevisiae, UniProt Q12263 1-1142, looked up)
chain: MAINGNSIPAIKDNTIGPWKLGETLGLGSTGKVQLARNGSTGQEAAVKVISKAVFNTGNVSGTSIVGSTTPDALPYGIEREIIIMKLLNHPNVLRLYDVWETNTDLYLVLEYAEKGELFNLLVERGPLPEHEAIRFFRQIIIGVSYCHALGIVHRDLKPENLLLDHKYNIKIADFGMAALETEGKLLETSCGSPHYAAPEIVSGIPYQGFASDVWSCGVILFALLTGRLPFDEEDGNIRTLLLKVQKGEFEMPSDDEISREAQDLIRKILTVDPERRIKTRDILKHPLLQKYPSIRDSKSIRGLPREDTYLTPLSESNSSIDATILQNLVILWHGRDPEGIKEKLREPGANAEKTLYALLYRFKCDTQKELIKQQQVKKRQSISSVSVSPSKKVSTTPQRRRNRESLISVTSSRKKPISFNKFTASSASSSNLTTPGSSKRLSKNFSSKKKLSTIVNQSSPTPASRNKRASVINVEKNQKRASIFSTTKKNKRSSRSIKRMSLIPSMKRESVTTKLMSTYAKLAEDDDWEYIEKETKRTSSNFATLIDEIFEYEKYEQIRKEKEELERKVREAKAREELERRRRKQEEKERARKLLEKEDLKRKQEELKKQIEIDISDLEQELSKHKEEKLDGNIRSISAPMENEEKNINHLEVDIDNILRRRNFSLQTRPVSRLDPGIMFSSPTEEVSPVEPKRTENERLTTEKKILETIRRSKFLGSSFNIDKELKLSKMEYPSIIAPQRLSEERVVSDSNDGYESLILPKDGNGVSQLKDSTATTAPVSDGRLRKISEIRVPQFTRKSRHFSESNKRLSVLSMYSTKESFTNLVDILKNGNLDVNNQQSQRIPTPRSADDSEFLFETVNEEAEYTGNSSNDERLYDVGDSTIKDKSALKLNFADRFNGSNEAKQTDNLHLPILPPLNGDNELRKQNSQEGDQAHPKIKSMIPESGSSSHTEKEEENEEKEEKKPEQHKQEEDQEKREKVVDDMEPPLNKSVQKIREKNAGSQAKDHSKDHLKEHKQDKNTAIGNGSFFRKFSKSSDKTMELYAKISAKQLFNGLEKLLRGWTQYGLKNIKSHPNNLTLTGKLSSDNIFSLRSTLFEVNIYPRGKMSVVQFKKVSGSFKAVKKLVNEVENVLNKEGVLQK
For the molecule B2, the binding result with full-length 6His-Bnr1 [2] is listed as “binds”.
